Source: article PMC7958122, “Insulin-Like Growth Factor Binding Protein-3 Exerts Its Anti-Metastatic Effect in Aerodigestive Tract Cancers by Disrupting the Protein Stability of Vimentin” (Cancers, 2021)

B1: GST-tagged vimentin coiled-coil domain deletion mutant ΔCC (1-101 linked with 411-467 aa) (domain or fragment, human, UniProt P08670 1-466, looked up)
chain: MSTRSVSSSSYRRMFGGPGTASRPSSSRSYVTTSTRTYSLGSALRPSTSRSLYASSPGGVYATRSSAVRLRSSVPGVRLLQDSVDFSLADAINTEFKNTRTISLPLPNFSSLNLRETNLDSLPLVDTHSKRTLLIKTVETRDGQVINETSQHHDDLE
notes: vimentin, human, head domain (1-101) ligated to tail domain (411-467 as printed); source: bacterial expression (pGEX-4T-2), recombinant
B2: GST-tagged head domain of vimentin (1-101 aa) (domain or fragment, human, UniProt P08670 1-101, looked up)
chain: MSTRSVSSSSYRRMFGGPGTASRPSSSRSYVTTSTRTYSLGSALRPSTSRSLYASSPGGVYATRSSAVRLRSSVPGVRLLQDSVDFSLADAINTEFKNTRT
notes: vimentin, human, head domain, residues 1-101; source: bacterial expression (pGEX-4T-2), recombinant

Target: T1, recombinant IGFBP-3 protein (rBP3) of the in vitro binding assays with vimentin domains (human, UniProt P17936 28-291)
T1 construct: IGFBP-3, human, recombinant protein; by the pull-down methods it may be the purified His-IGFBP-3; source: recombinant
T1 sequence (P17936 28-291): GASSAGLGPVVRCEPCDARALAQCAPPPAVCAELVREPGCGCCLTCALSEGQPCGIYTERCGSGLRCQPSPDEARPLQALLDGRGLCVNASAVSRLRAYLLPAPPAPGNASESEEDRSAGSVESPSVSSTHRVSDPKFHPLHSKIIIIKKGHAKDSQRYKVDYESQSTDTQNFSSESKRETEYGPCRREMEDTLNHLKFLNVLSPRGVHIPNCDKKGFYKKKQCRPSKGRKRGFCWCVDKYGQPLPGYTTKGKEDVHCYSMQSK
Experiment: pull-down; in vitro binding: glutathione-agarose-bound GST-vimentin (full-length, domains or deletion mutants) incubated with purified recombinant IGFBP-3 or its C-terminal domain; TNE binding buffer, 4 °C; Western blot
Settings: both partners purified

Row | Binder | binding result
1 | B1 | binds
2 | B2 | binds
